These results are taken from a protein production outcome set (Wang et al. 2014).

The nature of this series: label from the status in PepcDB records.
As to “MSVLDLPELALDCILDLLPPSGLCSMARVCSSLRERCVSDHLWEKHLKTKWGKILGPAAHREWQCYISSSTYHLDSPHHQTGNLGFAKIISLIRSLSSVFREDKQRRGYASSLPLDSSMSCYLSLETGRFWFPAQVYNRENGHVGFMLSCYDAELSYDTHTDTFQARYPPHGRRASAIEKGVTWDRIRAAPIDASPHLLHVSDSLKELKPGDHIEIQWRRNKEFPYGK”, the protein production result is given as “failed”.
In the case of “MNAEDFPTPDADVESVTPETLKSRIDDGESVTILDARMSGDYEEWHIDGENVESINVPYFHFLEDELDADIIADVPDDREVTVLCAKGGASEYVAGTLADRGYDVHHLEDGMNGWARIYETVEVTDYDGAGTLLQYQRPSSGCLGYLVYDDGEAAIIDPLRAFADRYFDDADELGVDLKYALDTHIHADHISGVRGLDAAGVEGVIPAAAVDRGVTYAAEQSSASPVSQARQDADDLTTAEDGDTFEVGDVTIETVATPGHTTGMTSYLVDDSLLATGDGLFIESVARPDLEEGDEGAPDAARMLYESLQERVLTLPDDTLIGGAHFSDAAEPANDGTYTAPIGQLVEEMDALTMDEDDFVETILADMPPRPANYEDIIATNLGQNTVDDEEAFTLELGPNNCAASQESLAGD”, the protein production entry is reported as “failed”.
Consider “MGQLPPRARAFFAAQRPLRVLMPGCGSAADLPPLLAMGHDVLAVDFSEAAIELAARQWPEAAGRLLLADFFQLQMPAFDCLFERAFLCALPVGMRSQYAERVAALIAPGGALAGVFFVADTERGPPFGMQAEALRELLSPWFELEEDLALDESVAVFRNRERWMVWRRRGLEHHHHHH”, for which the protein production entry is recorded as “failed”.
For “MSGVASGKTAIKSTAKVLSFVVQKHWATRLHYDFRLELEGTMKSWAVPKGPSFDPNDKRMAVHVEDHPISYNSFEGEIPSGQYGAGKVIIWDKGTWIPLEDPHKGYRDGKLKFELRGLKLKGHWALVRMRKEENKKQEPWLLIKEKDEYVRSSREYSVVDEMPDSVAELEHHHHHH” the value was “failed”; for “MKKQRNLRSMAAQAVEQVVEQGQSLSNILPPLQQKVSDKDKALLQELCFGVLRTLSQLDWLINKLMARPMTGKQRTVHYLIMVGLYQLLYTRIPPHAALAETVEGAIAIKRPQLKGLINGVLRQFQRQQEELLAEFNASDARYLHPSWLLKRLQKAYPEQWQSIVEANNQRPPMWLRINRTHHSRDSWLALLDEAGMKGFPHADYPDAVRLETPAPVHALPGFEDGWVTVQDASAQGCMTWLAPQNGEHILDLCAAPGGKTTHILEVAPEAQVVAVDIDEQRLSRVYDNLKRLGMKATVKQGDGRYPSQWCGEQQFDRILLDAPCSATGVIRRHPDIKWLRRDRDIPELAQLQSEILDAIWPHLKTGGTLVYATCSVLPEENSLQIKAFLQRTADAELCETGTPEQPGKQNLPGAEEGDGFFYAKLIKK”, “failed”; for “MQNQYFTVQENYKERFYQIPKVFFTSENYKNLTNDMKIAYAILRDRLNLSIKNSWVDEDGNIYFVYSNEKLMEILNCKKEKLTKIKKGL”, “failed”.
Take “MLPWNFEGEASEPAQDPTMAPHKRQSYEEELANAITHGVGLVLSLIGWVGLLVLSGLAGGGWDLAASAVFGGTLVFLYATSTLYHSVGTARLKRTLRILDHVAIFLLIAGTYTPFAGVLMREGWGWSVLALVWGIALAGLLFKLFSTHRFHPAATTLYLLMGWLGVLFADPMSAALPLGGLLLIVAGGLAYTIGVLFYGWHSLRYSHAIWHVFVLVGSACHYAAVVLYVL”: the protein production entry is given as “failed”.
In the case of “MSSLALRSPALALALTLGGLLLCGPVQAQQANSANDMVGRMQYRISELERLVQDLTGKVEQSLYENRQLQTKLENAQSDIDFRLNALESAGPAAAAPANSVPSSARPTASAGAGKQGTPAPAEGVLGFPGKTAPAQGAASAARPAAAGALPAGSENDQYNYAFSLLRNADYPAAEQAFKAFLDQHPKGSLAGNAQYWLGETYYVRGDYEQAAVAFMGGYQSHPDSSKGPDNLLKLGLAMANLGKSKEACAAFGRLESQYPKAADAIKRRAKEGMSKLGC”, the protein production result is reported as “failed”.
For “MNGGTFTPGKEKDRAGIYFNFKTTAEERVSIGDRGTVALPVVMSWGEPKTFVSISSIEDLNKKVGLNIDDPSLLLFREAKKNAQTVLLYRLNTGAPAKAQIGETLSVTAKYGGEKGNDISIRISENVLDSKKFDVTTFVGTDEADRQTVKTAEELTANAYVAFQGEGALELTAGTKLSGGENGTASVADYTAFLDAAETEYFNTIALPVADNEQLKATFAAFIKRLRDKQGQKVQGVVADYAGDYEGIINVTGGVVLEDGTEITPEKATAWVAGASAGATFNQSLTFVEYEGAVDVLNRLDEDQVIERLKKGEFLFTFDARDQSVSVEKDINSLTSFTADKNKKFSKNKIIRVLDGVNNDLTRELKALIKARKASGSDIPASDDGLQYVKTLIIQYMTALQEAGGITGFDSESDIAITLNEDRDGFLIDLAVQPVDAAEKFYFNVEVK” the value was “failed”; for “QWDITLIGHEDDLSQLSHEKLSKLAACIEYSPYPMVEIDYFGNLTYLNTATKEKFPSIQKDSMAHPLLKDIIPQREDTPIYYLRTREVQIGDKFYEQHIHYPAESQFIRSYIFDITERKVIEQSIHYQAFYDPLTDLPNRFLFKQELGKVLSNVQNQSSVLGLVLLGFRELQSLNDLLG”, “failed”.
With “MKIAIFGTTLHAGVMAALLAERGNDVFWCADHDYKGLEEQIVCQTYQEQDVNRLLVKQRQLGFLKDCRFSSIPLDIEAYLFCFSPTELQFALEVTQLLNIRPIIHPRLMINGSTFGLHGTEKLKQNLPKDHWVYFPDMIQEGNAINSVLTVKHVIVGVESDYTKTIMHEMLRPFFRFNHQYLFMPILDAEFTKLSISGMLATRISYMNDMALVAEKLGIDIANVKEGMAADTRIGSAYLSAGVGFGGENFSHDILTLSNVVSDTGARSRLLEQVWEINEQQKEVLFRKLWNYYHCDLKDKVVAIWGAAFKENTSNIHNAPIHSMLTALWAQGAIVKLHDPQALEEIQARYGKRNDLILCTEQYEATRGAHALCVMTVWKQYLSPDYKKLQQLMAHPFILDGRNVYDPVYIKQQGFAYEGIGRL” the entry was “failed”; with “MAAGKRDYYEVLGISKNASSQDIKRAFRKLAMQYHPDRHKAENETTQKQNEEKFKEVNEAYEVLSDEEKRKLYDQFGHEGLNASGFHEAGFNPFDIFNSVFGEGFSFGMDGDSPFDFIFNRSKKRQQQIVVPYNLDIALVIEINFFEMTNGCNKTIKYERKVSCHSCNGFGAEGGESGLDLCKDCNGNGFVIKNQRSIFGTIQSQVLCSTCNGQGKQIKVKCKTCRSNKYTVTNQIKEINIPAGMYSGEALVDESGGNEFKGHYGKLIIQVNVLASKIFKRSDNNVIANVLVDPMVAIVGGVIELPTLEGIKEFNIRPGTKSGEQIVIPNGGIKFSKSFKRKAGDLIIIISYARPCEYTNLELKKLREFIKPNQEVKQYLNTLKNEYKT”, “failed”; with “MVSVNLPWELVEEILCRVPPQSLVKFRTVCKQWNSLFDDNKFVNDHFVQSQPQLIFRTESKIYSVAVNFKGPRIEVHELPLAIPGLKSEMPIRLHDYVDCDGLLFCTSYFNGVLIWNPWLRQTRFFPSIHRYPVTYDIGYDNKKQYKMLDYYKCEGDSSIKSIIYEIGLYSKKVKDLESDSTWSIFQSNSVSLNGTLYWAGVDVNNGIFIRSFSFSTEKPRTFCSLPFMYDDDNVLALAVFRKDRLSLLNLCNKTSEIKIWLTKNNINDREVGLEEDVVWINLMTVLIPNFPKFSFYWYNRPDLTYFLDNDDAKRLVICCYDETDQAYIYIVKGDMFKKIKIDQYEVLSDYSRPHFHTYIPSLVRPSRVKEDNKN”, “failed”.
For “MTPAARLSAAIELIDTIERDRVPAAKALKEWGTAHRFAGSGDRAAIAGLVWDVLRRYASSAFLMDADTARARLIGMLRLERDMDAATMAALFDGSRFAPAPLTEAEQAALSHRSLRDAPAAIAGDYPEWLDPHLAKVFGEDRAAEAAAMASRAPLDLRVNTLKSNRDKVLRALAHLHAKPTPWSATGLRIELSADARNPGIQAEEDFIKGAVEVQDEGSQLAAQFTAAKPGEQVIDLCAGAGGKTLALAAMMQGKGRLIATDSDKRQLAPIHERLSRAGVHNADVRTPKGEADPLADISATADLVVIDAPCTGTGTWRRNPDAKWRMRPGALEIRLRDQAEVLERAVPLVKLGGRIAYITCSVLAEENGEQVRAFIGRHPEFAVVPPEQIASVLWDKAEDFAKAALQSPEGWLMTPRRTGTDGFFVSVLKKTA”, the protein production entry was “failed”.
With “MFTMDDLNQMDTQTLTDTLGSIFEHSSWIAERSAALRPFSSLSDLHRKMTGIVKAADRETQLDLIKKHPRLGTKKTMSDDSVREQQNAGLGKLEQQEYEEFLMLNEHYYDRFGFPFILAVKGKTKQDIHQALLARLESERETEFQQALIEIYRIARFRLADIITEKGETQMKRTMSYGKGNVFAYRTYLKPLTGVKQIPESSFAGRDNTVVGVDVTCEIGGEAFLPSFTDGDNTLVVATDSMKNFIQRHLASYEGTTTEGFLHYVAHRFLDTYSHMDTITLTGEDIPFEAMPAYEEKELSTSRLVFRRSRNERSRSVLKAERSGNTITITEQYSEIMDLQLVKVSGNSFVGFIRDEYTTLPEDGNRPLFVYLNISWQYENTNDSYASDPARYVAAEQVRDLASTVFHELETPSIQNLIYHIGCRILARFPQLTDVSFQSQNHTWDTVVEEIPGSKGKVYTEPRPPYGFQHFTVTREDAEKEKQKAAEKCRSLKA”, the protein production entry was “failed”.
Turning to “MVVMSKVLLNIGCADVDKPGYINVDARKTKVTHLVSNAWDLDCFEENSVHEIYSRHMLEHLNPEYAKLALQKWFYILEPEGKLVVIVPDIEFHARQLLGVSRSSFGDQMEHAFAGFWGWREKERGGSDFDAHQWGYTVATLENEIGAVGFERIERVVEGVDSEPWHLQMTARKPMTSLCCPMDFRGPFPLEHHHHHH”, the protein production result is reported as “not failed”.
“MSTSHPISKIYFSDKKSLQKVDILLEQEGIRRDTNLDYICAMFDDDLNIIATGSCFGNTLRCLSVDHHYQGDGLLNEIVTHLINIQFERGNTHLFLYTKPDTAKFFKDLGFYEIARADKQIVFMENKKDGFSNYLKNLEKPDSECQTTAALVINANPFTLGHQYLVEKAAAENELLHLFMVSDDSSLIPFSVRKQLILAGTEHLSNICYHETGPYIISKSIFPSYFQKDQASVIESQARIDLAIFIQIAKYLGIKGRYVGEEPTSLVTGIYNQIMLQELPKQAIDCIVVPRKTYKDGPISASTVRKALKEGNEQILRELLPSTSLNYFLSPEAQPLIKKIQKADNVIHY”: the protein production result is recorded as “failed”.
Consider “ALLQTPEFVEEFILDRTMNPAVREFGYEELKMIDPTCGSGHFVLGAFRRLVRLGGENQPGKDVHQRVRAALDSVHGVDINPFAVAIARFRLLVAAMAASGVRTLDEASKYEWPVHLAVGDSLIKSGSQQGSLFGESDDDLTDELAEFKYATEDVGEHPEMLRPGRYHVVVGNPPYITVKDKSLNALYRELYPACAGKYALSVPFAQRFFELAKREDAEGSGYGMVGQITANSFMKREFGTKLIEGYFGHAVELTEVIDTSGAYIPGHGTPTVILVGTRRGGDGR”, for which the protein production result is “failed”.
On to “MKGTFTNLLVLLLIALVCANVGARKLISEDTQFKDEKSFLGGGGSGDGLGLGLGGGAGLGGLGIGAGIGAGAGLGLGGGGGGLGGGGGGLLGGGGFGGGAGGGLGGLP”, for which the protein production result is “failed”.
As for “MGGSLRVAVLGAPGVGKTAIIRQFLFGDYPERHRPTDGPRLYRPAVLLDGAVYDLSIRDGDVAGPGSSPGGPEEWPDAKDWSLQDTDAFVLVYDICSPDSFDYVKALRQRIAETR”, the protein production entry is reported as “failed”.
